Laboratory results: patent US11739161B2, “Methods for treating and diagnosing prostate cancer” (Tufts Medical Center, Inc., priority 2017, dated 2023)

Key:
Assay type in all cases: cell-based, human
DU145 cells = assay: Cell cycle analysis by flow cytometry; details: exogenous RNASE4 1 μg/ml
Method: FIGS. 10A-E. RNASE4 induces prostate cancer cell proliferation and phosphorylation of AKT and S6. (A and B) Exogenous RNASE4 (1 μg/ml) stimulates cell proliferation (A) and cell cycle progression (B) of DU145 cells cultured in the presence of 2% FBS. Cell numbers were determined by MTT assay. […] (C) Time course of AKT and S6 phosphorylation of serum-starved DU145 cells by RNASE4 (1 μg/ml). Left panels, immunoblots; right panels, quantification of p-AKT and p-S6 normalized to total AKT and S6 by Image J analysis. […] Cells were pre-incubated with the inhibitors at the indicated concentrations for 1 hour prior to be stimulated by 1 μg/ml of RNASE4 for 5 minutes. Top panels, immunoblots; bottom panels, Image J quantification of p-AKT and p-S6 normalized to total AKT and S6. (E) Effect of AKT inhibitor MK-2206, PI3K inhibitors Wortmannin and LY294002, and mTOR inhibitor Rapamycin on RNASE4-induced cell proliferation. DU145 cells were serum-starved overnight, incubated with the inhibitors for 1 hour, and then treated with RNASE4 (1 μg/ml) for three days. Cell numbers were determined by MTT assay. Data shown are from a representative experiments in triplicates of 3 independent repeats. […]
FIGS. 17A-C. […] Cell numbers were determined by a Coulter counter. […] Cell cycle status was determined by flow cytometry. […] Bottom panels, tube length and number of loops counted from 5 randomly selected areas. […]

[1] = tested on: AKT and S6 phosphorylation in DU145 cells; assay: RNASE4-induced phosphorylation of AKT and S6 (immunoblot); details: serum-starved DU145, RNASE4 1 μg/ml, time course
Method: FIGS. 10A-E. RNASE4 induces prostate cancer cell proliferation and phosphorylation of AKT and S6. (A and B) Exogenous RNASE4 (1 μg/ml) stimulates cell proliferation (A) and cell cycle progression (B) of DU145 cells cultured in the presence of 2% FBS. Cell numbers were determined by MTT assay. Cell cycle status was determined by flow cytometry after 24 hour incubation with RNASE4. (C) Time course of AKT and S6 phosphorylation of serum-starved DU145 cells by RNASE4 (1 μg/ml). Left panels, immunoblots; right panels, quantification of p-AKT and p-S6 normalized to total AKT and S6 by Image J analysis. […] Cells were pre-incubated with the inhibitors at the indicated concentrations for 1 hour prior to be stimulated by 1 μg/ml of RNASE4 for 5 minutes. Top panels, immunoblots; bottom panels, Image J quantification of p-AKT and p-S6 normalized to total AKT and S6. (E) Effect of AKT inhibitor MK-2206, PI3K inhibitors Wortmannin and LY294002, and mTOR inhibitor Rapamycin on RNASE4-induced cell proliferation. DU145 cells were serum-starved overnight, incubated with the inhibitors for 1 hour, and then treated with RNASE4 (1 μg/ml) for three days. Cell numbers were determined by MTT assay. Data shown are from a representative experiments in triplicates of 3 independent repeats. Error bars indicate SEM. **P≤0.01, by unpaired two-tailed Student's t test.
(§1) FIGS. 12A-F. RNASE4 induces AXL phosphorylation. (A) Human phospho-receptor tyrosine kinase (RTK) antibody array analysis. Serum-starved DU145 cells were treated with or without 1 μg/ml of RNASE4 for 5 minutes. A total of 1.5 mg cell lysate protein was blotted on each array membrane. […] (B) Immunoblot analysis of RNASE4-stimulated AXL phosphorylation. DU145 cells were serum-starved overnight and treated with 1 μg/ml of RNASE4 for the indicated time. Cell lysates were analyzed by antibodies against total AXL and phospho-AXL, with β-actin as the loading control. Left panels, immunoblots; right panel, Image J quantification of p-AXL normalized to total AXL. (C) Immunoblot analysis of phospho-AXL in response to stimulation by ANG, RNase A, and RNASE4. DU145 cells were serum-starved overnight and treated with 1 μg/ml of ANG, RNase A, or RNASE4 for 15 minutes. Left panels, immunoblots; right panel, quantification. (D) Effect of AXL inhibitor R428 on RNASE4-induced cell proliferation. Serum-starved DU145 cells were incubated with 1 or 3 μM R428 for 3 hours and then stimulated by 1 μg/ml of RNASE4 for 3 days. Cell numbers were determined by MTT assay. Data shown are means±SEM of a representative experiment (in triplicates) of 3 independent repeats. **P≤0.01 and ***P≤0.001, by unpaired two-tailed Student's t test. (E) Effect of AXL inhibitor R428 on RNASE4-induced AKT and P6 phosphorylation. Serum-starved DU145 cells were incubated with 1 or 3 μM R428 for 3 hours and then stimulated by 1 μg/ml of RNASE4 for 5 minutes. Cell lysates were analyzed for AKT and P6 phosphorylation by immunoblotting. Top panels, immunoblots; bottom panels, quantification of phospho-AKT and phospho-S6 by Image J analyses normalized to total AKT and P6, respectively. (F) Schematic presentation of proposed involvement of AXL in RNASE4-stimulated cellular events.

[2] = tested on: AXL phosphorylation in DU145 cells; assay: AXL phosphorylation (phospho-RTK array, immunoblot); details: serum-starved DU145, 1 μg/ml protein
Method: as §1
Human Phospho-RTK Arrays were purchased from R&D Systems. […] Protein concentrations were quantified by Bradford Assay and 1.5 mg cell lysate was used per array. Pixel densities on were analyzed by ImageJ. […]

B1: RNASE4: recombinant human RNASE4 protein from pET11 expression in E. coli, purified by reversed-phase HPLC; added exogenously (protein, UniProt P34096 29-147, looked up)
Ribonuclease 4: QDGMYQRFLRQHVHPEETGGSDRYCNLMMQRRKMTLYHCKRFNTFIHEDIWNIRSICSTTNIQCKNGKMNCHEGVVKVTDCRDTGSSRAPNCRYRAIASTRRVVIACEGNPQVPVHFDG
In the case of B1, the G0/G1 population (DU145 cells) is reported as “decreased”, the G2/S/M phase population (DU145 cells) is reported as “increased” and the “activation (phosphorylation) of AKT and S6” value [1] is reported as “rapidly and continuously activated”. For the same molecule, the “phosphorylation of AXL” value [2] was “induced phosphorylation”.
